Source: patent US7432244 (dated 2008)
Bridge positions count the residues as written; N and C are the ends. Ends that are not written are not given here.

B1: F2-I (peptide)
chain: VTCAADALGFLYCWE
B2: F2-H (peptide)
chain: WRCVDDLGGFQYCWA
B3: F1-B (peptide)
chain: FGCYESVAALRTCMY
B4: F2-L (peptide)
chain: ARCARDAGGFYYCWA
B5: F2-C (peptide)
chain: VKCARDLSGFVYCWA
B6: F2-B (peptide)
chain: VRCAYDAGGSRYCWE
B7: F1-C (peptide)
chain: RNCFESVAALRRCMY
B8: F2-M (peptide)
chain: WRCAQDAGGWTYCWA
B9: F2-F (peptide)
chain: FRCAWELGWLYVLGL
B10: F2-K (peptide)
chain: YRCATDLAGFSYCWA
B11: F1-A (peptide)
chain: HPCLESVGALKACMY
B12: F1-G (peptide)
chain: SDCFESVEALRACMY
B13: F2-E (peptide)
chain: LGCASDLAGFWYCWA
B14: F2-J (peptide)
chain: LRCAEDLGGYFYCWA
B15: F1-E (peptide)
chain: SDCFGSVEALKMCMY
B16: F2-D (peptide)
chain: VRCAWDLGGRAYCWA
B17: F2-N (peptide)
chain: VRCVADAGGFLYCWA
B18: F1-F (peptide)
chain: FECLTSVEALRGCMY
B19: F2-G (peptide)
chain: ASCVADAGGGGYCWD
B20: F2-A (peptide)
chain: GGCASDLAGFRYCWE
B21: F1-H (peptide)
chain: MDCLASVEALKWCMY
B22: F1-D (peptide)
chain: HDCFASVEALRRCMY
B23: F1-2 (peptide)
chain: MDCLASVEALKWCMYG
modifications: disulfide 3-13 (inferred)
B24: F1-3 (peptide)
chain: FECLTSVEALRGCMYG
modifications: disulfide 3-13 (inferred)
B25: F1-1 (peptide)
chain: RNCFESVAALRRCMYG
modifications: disulfide 3-13 (inferred)

Target: T1, IGF-1 (human, UniProt P05019)
Assay: competition phage ELISA

T1 sequence (P05019 49-118): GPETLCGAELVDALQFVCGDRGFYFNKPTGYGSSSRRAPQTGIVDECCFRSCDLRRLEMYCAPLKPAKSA

Row | IC50 | Binder
1 | 1.03 µM | B1
2 | 0.319 µM | B2
3 | 0.301 µM | B3
4 | 4.36 µM | B4
5 | 10000 µM | B5
6 | 24.6 µM | B6
7 | 0.108 µM | B7
8 | 1.04 µM | B8
9 | 209 µM | B9
10 | 1.45 µM | B10
11 | 0.401 µM | B11
12 | 0.968 µM | B12
13 | 0.554 µM | B13
14 | 2.12 µM | B14
15 | 0.711 µM | B15
16 | 249 µM | B16
17 | 1.18 µM | B17
18 | 0.286 µM | B18
19 | 0.986 µM | B19
20 | 1.33 µM | B20
21 | 0.147 µM | B21
22 | 0.468 µM | B22

Target: T1, IGF-1
Assay: competition, IGF-1 phage vs IGFBP-3

Row | IC50 | Binder
23 | 9.2 µM | B23
24 | 12.8 µM | B24
25 | 2.93 µM | B25

Target: T1, IGF-1
Assay: competition, IGF-1 phage vs IGFBP-1

Row | IC50 | Binder
26 | 15.5 µM | B23
27 | 11.7 µM | B24
28 | 1.4 µM | B25

Target: T1, IGF-1
Assay: competition, 125I-IGF-1 binding to MCF-7 cells, 37C

Row | IC50 | Binder
29 | 15.3 µM | B23
30 | 45.7 µM | B24
31 | 5.12 µM | B25
